Reference: publication PMC9580340 (Science (New York, N.y.), 2022)

B1: A19-61.1 IgG1 (antibody, V domains shown)
VH: QVQLVESGGGVVQPGRSLRLSCAASGFTFSSYAFHWVRQAPGKGLEWVAVISYDGSNQYYADSVKGRFTISRDNSKNTLYLQMNSLRADDTAVYYCARDLAIAVAGTWHYYNGMDVWGQGTTVTVSS
VL: DIQMTQSPSSVSASVGDRVIITCRASQGISSWLAWYQQKPGKAPKVLIYDASSLQSGVPSRFSGSGYGTDFTLTISSLQPEDSATYYCQQAKSFPITFGQGTRLEIK
B2: A19-46.1 IgG1 (antibody, V domains shown)
VH: QVQLVESGGGVVQPGRSLRLSCAASGFTLSSYGMHWVRQAPGKGLEWVAVISYDGSNKYYVDSVKGRFTISRDNSKNTLYLQMNSLRAEDTAVYYCARGWAYWELLPDYYYGMDVWGQGTTVTVSS
VL: QTVVTQEPSFSVSPGGTVTLTCGLSSGSVSTAYFPSWYQQTPGQAPRTLIYGTNTRSSGVPDRFSGSILGNKAALTITGAQADDESDYYCVLYMGRGIVVFGGGTKLTVL
B3: Fab A19-46.1 (Fab, V domains shown)
VH: QVQLVESGGGVVQPGRSLRLSCAASGFTLSSYGMHWVRQAPGKGLEWVAVISYDGSNKYYVDSVKGRFTISRDNSKNTLYLQMNSLRAEDTAVYYCARGWAYWELLPDYYYGMDVWGQGTTVTVSS
VL: QTVVTQEPSFSVSPGGTVTLTCGLSSGSVSTAYFPSWYQQTPGQAPRTLIYGTNTRSSGVPDRFSGSILGNKAALTITGAQADDESDYYCVLYMGRGIVVFGGGTKLTVL
notes: 17-residue-long CDR H3

Legend:
[1] = biological target: T1, SARS-CoV-2 D614G spike, full length, on transfected 293T cells (SARS-CoV-2, QHD43416.1 (Wuhan-Hu-1) …, UniProt A0A6H1PJZ3, D614G); assay: flow cytometry on cells; conditions: one partner purified
T1 construct: also called ancestral D614G spike

[2] = biological target: SARS-CoV-2 B.1.1.529 (Omicron; BA.1) spike, full length, on transfected 293T cells (SARS-CoV-2 B.1.1.529 (Omicron BA.1), A67V | H69del | V70del | T95I | G142D | V143del | Y144del | Y145del | N211del | …); assay: flow cytometry on cells; conditions: one partner purified
[3] = biological target: T2, SARS-CoV-2 B.1.1.529 (Omicron) S2P spike, trimeric ectodomain (cryo-EM) (SARS-CoV-2 B.1.1.529 (Omicron BA.1), …, A67V | H69del | V70del | T95I | G142D | V143del | Y144del | Y145del | N211del | …); assay: cryo-EM structure; conditions: both partners purified
T2 construct: also called B.1.1.529 spike; B.1.1.529 S2P spike

Binder | binding result [1] | binding as percent of D614G [2] | stoichiometry N [3] [Fabs per spike trimer]
B1 | binds | – | –
B2 | binds | 47 % of D614G | –
B3 | – | – | 2
